Consider 5 molecules from PMC7765622, “The Cardioprotective PKA-Mediated Hsp20 Phosphorylation Modulates Protein Associations Regulating Cytoskeletal Dynamics” (International Journal of Molecular Sciences, 2020).

Substitutions are numbered along the chain they refer to. In names and notes the source's numbering stands.

B1: GST-Hsp20 (amino acids 1-160), wild type, phosphorylated in vitro by PKA at Ser16 (natural protein, human, UniProt O14558 1-160, looked up)
chain: MEIPVPVQPSWLRRASAPLPGLSAPGRLFDQRFGEGLLEAELAALCPTTLAPYYLRAPSVALPVAQVPTDPGHFSVLLDVKHFSPEEIAVKVVGEHVEVHARHEERPDEHGFVAREFHRRYRLPPGVDPAAVTSALSPEGVLSIQAAPASAQAPPPAAAK
modifications: phosphoserine at 16 (PKA in vitro)
notes: Hsp20 (HspB6), amino acids 1-160, wild type; construct previously reported [16,53,57]; Same construct as m7, after PKA treatment; also called phosphorylated GST-Hsp20; GST-p-Hsp20; source: recombinant, purified on Glutathione Sepharose 4B; phosphorylated in vitro with PKA catalytic subunit (New England Biolabs), 30 °C, 1 h
B2: GST-Hsp20-S16D (natural protein, human, UniProt O14558 1-160, looked up)
chain: B1 chain with S16D
notes: Hsp20 (HspB6), amino acids 1-160, made by PCR mutagenesis on the WT Hsp20 GST-tagged plasmid; Phosphomimetic at Ser16; also called GST-p-Hsp20-S16D (after PKA treatment); source: recombinant, purified (Glutathione Sepharose 4B), eluted; used untreated or PKA-treated
B3: MBP-14-3-3 (amino acids 1-120) (protein)
chain: MVDREQLVQKARLAEQAERYDDMAAAMKNVTELNEPLSNEERNLLSVAYKNVVGARRSSWRVISSIEQKTSADGNEKKIEMVRAYREKIEKELEAVCQDVLSLLDNYLIKNCSETQYESK
B4: MBP-14-3-3 (amino acids 115-247) (domain or fragment, human, UniProt P61981 115-247, looked up)
chain: TQYESKVFYLKMKGDYYRYLAEVATGEKRATVVESSEKAYSEAHEISKEHMQPTHPIRLGLALNYSVFYYEIQNAPEQACHLAKTAFDDAIAELDTLNEDSYKDSTLIMQLLRDNLTLWTSDQQDDDGGEGNN
notes: 14-3-3 gamma, human, amino acids 115-247, in pMALc2x; also called MBP-14-3-3 C-terminal deletion construct; C-terminal fragment of 14-3-3; source: recombinant, expression as previously described [58]
B5: MBP-14-3-3 (amino acids 1-247), full length 14-3-3 gamma (protein)
chain: MVDREQLVQKARLAEQAERYDDMAAAMKNVTELNEPLSNEERNLLSVAYKNVVGARRSSWRVISSIEQKTSADGNEKKIEMVRAYREKIEKELEAVCQDVLSLLDNYLIKNCSETQYESKVFYLKMKGDYYRYLAEVATGEKRATVVESSEKAYSEAHEISKEHMQPTHPIRLGLALNYSVFYYEIQNAPEQACHLAKTAFDDAIAELDTLNEDSYKDSTLIMQLLRDNLTLWTSDQQDDDGGEGNN

For assay [1], the target named is T1, MBP-14-3-3 (amino acids 1-247), full length 14-3-3 gamma (human, UniProt P61981 1-247).
T1 construct: 14-3-3 gamma, human, amino acids 1-247, cloned by RT-PCR on human muscle cDNA into pMALc2x; also called in vitro expressed 14-3-3; source: recombinant, expression as previously described [58]
T1 sequence (looked up): B5 chain
Put plainly: pull-down; same samples as a4: eluted GST-Hsp20 proteins (PKA-treated or not) bound to MBP-14-3-3 on amylose resin, in the presence of myc-CFL2 HEK 293 lysate; blot with phospho-Hsp20 or GST antibody. The following applies: both partners purified.

Assay [2] deals with T2, GST-CFL2 (amino acids 1-166), non-phosphorylated (Homo sapiens (Human), UniProt Q9Y281).
T2 chain: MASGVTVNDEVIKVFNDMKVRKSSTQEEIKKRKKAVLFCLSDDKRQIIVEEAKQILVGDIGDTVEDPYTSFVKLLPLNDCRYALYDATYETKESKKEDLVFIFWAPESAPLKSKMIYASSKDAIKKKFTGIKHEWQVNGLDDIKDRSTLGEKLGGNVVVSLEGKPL
Description: blot overlay.

The target in assay [3] is B1. Put plainly: far-Western, overlay or dot blot; purified GST fusion proteins separated by SDS-PAGE and transferred to nitrocellulose; membranes incubated with MBP-14-3-3 fusion protein (or MBP as control); detection with anti-MBP. Particulars: both partners purified.
Assay [4] deals with T3, GST-CFL2 (amino acids 1-55) (Homo sapiens (Human), UniProt Q9Y281).
T3 chain: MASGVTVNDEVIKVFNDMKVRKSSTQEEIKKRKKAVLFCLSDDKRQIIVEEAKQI
Put plainly: blot overlay.

With B1, in assay [1], the binding result is listed as “binds”. Turning to B2, the binding result in assay [1] is “binds”. In the case of B3, the binding result in assay [2] is reported as “binds”. Consider B4, for which the binding result in assay [3] is on record as “binds”. For the molecule B5, the binding result in assay [2] and in assay [4] was “binds” in each case.
